Where a chain is given by its changes, count along the chain named.
T1: VCAM (Panvera) (UniProt P19320 25-698, limits assumed)
T1 sequence (looked up): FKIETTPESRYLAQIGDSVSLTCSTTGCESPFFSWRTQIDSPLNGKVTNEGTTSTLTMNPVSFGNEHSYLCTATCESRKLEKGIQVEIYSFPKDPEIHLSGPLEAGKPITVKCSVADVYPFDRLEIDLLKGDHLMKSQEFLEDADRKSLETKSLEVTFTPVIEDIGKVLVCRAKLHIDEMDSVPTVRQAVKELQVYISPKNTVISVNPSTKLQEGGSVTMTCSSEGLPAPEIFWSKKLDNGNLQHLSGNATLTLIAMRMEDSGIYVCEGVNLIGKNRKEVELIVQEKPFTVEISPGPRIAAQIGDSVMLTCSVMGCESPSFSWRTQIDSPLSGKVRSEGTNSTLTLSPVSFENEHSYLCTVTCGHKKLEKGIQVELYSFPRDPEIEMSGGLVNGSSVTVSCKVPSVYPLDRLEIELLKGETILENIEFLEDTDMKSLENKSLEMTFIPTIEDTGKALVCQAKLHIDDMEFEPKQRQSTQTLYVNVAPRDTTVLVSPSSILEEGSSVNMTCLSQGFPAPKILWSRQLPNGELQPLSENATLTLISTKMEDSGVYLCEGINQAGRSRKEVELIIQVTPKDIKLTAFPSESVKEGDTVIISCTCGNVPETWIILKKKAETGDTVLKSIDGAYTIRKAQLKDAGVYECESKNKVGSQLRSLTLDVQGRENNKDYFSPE

B1: anti-MAdCAM monoclonal antibody 6.34.2 (antibody, human IgG4, kappa, V domains shown)
VH: QVQLVESGGGVVQPGRSLRLSCAASGFTFSSYGMHWVRQAPGKGLEWVAVISNDGNNKYYADSVKGRFTISRDNSKNTLYLQMNSLSAEDTAVYYCARDSTAITYYYYGMDVWGQGTTVTVSS
VL: DIQMTQSPSSLSASVGDRVTITCRASQNISSYLNWFQQKPGKAPKLLIYAASGLKRGVPSRFSGSGSGTDFTLTIRTLQPDDFATYSCHQSYSLPFTFGPGTKVDIKR
notes: fully human IgG4 kappa from hybridoma; signal peptide left out; kappa chain stained positive for glycosylation
B2: anti-MAdCAM monoclonal antibody 7.20.5 (antibody, human IgG2, kappa, V domains shown)
VH: QVQLQESGPGLVKPSETLSLTCTVSGSSISSYHWNWIRQPAGKGLEWIGRIYTSGSTNYNPSLKSRVTMSLDTSKNQFSLKLSSVTAADTAVYYCAREGVRYYYASGSYYYGLDVWGQGTTVTVSS
VL: not shown
notes: fully human IgG2 kappa from hybridoma; signal peptide left out
B3: anti-MAdCAM monoclonal antibody 6.67.1 (antibody, human IgG4, kappa, V domains shown)
VH: QVQLQESGPGLVKPSETLSLTCTVSGDSISSNYWSWIRQPAGKGLEWIGRIYTSGGTNSNPSLRGRVTILADTSKNQFSLKLSSVTAADTAVYYCARDRITIIRGLIPSFFDYWGQGTLVTVSS
VL: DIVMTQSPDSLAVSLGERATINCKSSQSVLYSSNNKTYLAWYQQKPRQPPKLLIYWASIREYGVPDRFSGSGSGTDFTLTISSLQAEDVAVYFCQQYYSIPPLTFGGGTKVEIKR
notes: as for B1
B4: anti-MAdCAM monoclonal antibody 9.8.2 (antibody, human IgG4, kappa, V domains shown)
VH: QVQLVESGGGVVQPGRSLRLSCAASGFTFSSYGMHWVRQAPGKGLEWVAVIWYDGSNEYYADSVKGRFTISRDNSKNTLYLQMNSLRAEDTAVYYCARGAYHFAYWGQGTLVTVSS
VL: DIQMTQSPSSLSASVGDRVTITCQASQDISNYLNWYQQKPGKAPKLLIYDASNLETGVPSRFSGSGSGTDFTFTISSLQPEDIATYSCQHSDNLSITFGQGTRLEIKR
notes: as for B1
B5: anti-MAdCAM monoclonal antibody 7.26.4 (antibody, human IgG2, kappa, V domains shown)
VH: QVQLVQSGAEVKKPGASVKVSCEASGYTFTSYGIDWVRQAPGQGLEWMGWISVYSGNTNYAQKLQGRVTMSTDTSTSTAYMELRSLRSDDTAVYYCAREGSSSSGDYYYGMDVWGQGTTVTVSS
VL: DIVMTQTPLSLSVTPGQPASISCKSNQSLLYSDGKTYLFWYLQKPGQPPQLLIYEVSNRFSGVPDRFSGSGSGTDFTLKISRVEAEDVGVYYCMQSIQLPWTFGQGTKVEIKR
notes: fully human IgG2 kappa from hybridoma; signal peptide left out; kappa chain glycosylation confirmed
B6: anti-MAdCAM monoclonal antibody 6.22.2 (antibody, human IgG4, kappa, V domains shown)
VH: QVQLVESGGGVVQPGRSLRLSCAASGHTFSSDGMHWVRQAPGKGLEWVAIIWYDGSNKYYADSVKGRFTISRDNSKNTLYLQMNSLRAEDTAVYYCARDPGYYYGMDVWGQGTTVTVSS
VL: EIVLTQSPDFQSVTPKEKVTITCRASQRIGSSLHWYQQKPDQSPKLLIKYASQSFSGVPSRFSGSGSGTNFTLTINGLEAEDAATYYCHQSGRLPLTFGGGTKVEIKR
notes: as for B1
B7: modified anti-MAdCAM monoclonal antibody 6.34.2-mod (antibody, human IgG2, kappa, V domains shown)
VH: B1 VH with S87R
VL: B1 VL with N28S, F36Y, R76S, T77S, D81E, S87Y
notes: human IgG2 kappa, made in HEK 293T cells; signal peptide left out
B8: modified anti-MAdCAM monoclonal antibody 6.67.1-mod (antibody, human IgG2, kappa, V domains shown)
VH: B3 VH with I69M, L70S, A71V
VL: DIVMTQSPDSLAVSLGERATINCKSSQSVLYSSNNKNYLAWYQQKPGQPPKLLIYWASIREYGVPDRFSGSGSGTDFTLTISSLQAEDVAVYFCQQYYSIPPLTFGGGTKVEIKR
notes: as for B7
B9: modified anti-MAdCAM monoclonal antibody 7.26.4-mod (antibody, human IgG2, kappa, V domains shown)
VH: B5 VH
VL: B5 VL with N26S
notes: human IgG2 kappa, parental heavy chain with modified kappa chain, made in HEK 293T cells; signal peptide left out
B10: modified anti-MAdCAM monoclonal antibody 6.77.1-mod (antibody, human IgG2, kappa, V domains shown)
VH: EVQLVESGGGLVKPGGSLRLSCAASGFTFSSYSMNWVRQAPGKGLEWVSSISSSSSYIYYADSVKGRFTISRDNAKNSLYLQMNSLRAEDTAVYYCARDGYSSGWSYYYYYGMDVWGQGTTVTVSS
VL: B5 VL with N26S, Y31L, F39N, Y92S, P100M, W101S, T102S, V109L
notes: as for B7
B11: modified anti-MAdCAM monoclonal antibody 6.22.2-mod (antibody, human IgG2, kappa, V domains shown)
VH: B6 VH with H27F
VL: B6 VL with N70D, G77S
notes: as for B7

target: Fibronectin cell binding fragment (110 Kd, Europa Bioproducts Ltd, Cat. No. UBF4215-18) (UniProt P02751-1 722-1635); experiment: cell-based or functional assay
Sequence (P02751 other isoform, or with tags, fused parts or gaps limits assumed): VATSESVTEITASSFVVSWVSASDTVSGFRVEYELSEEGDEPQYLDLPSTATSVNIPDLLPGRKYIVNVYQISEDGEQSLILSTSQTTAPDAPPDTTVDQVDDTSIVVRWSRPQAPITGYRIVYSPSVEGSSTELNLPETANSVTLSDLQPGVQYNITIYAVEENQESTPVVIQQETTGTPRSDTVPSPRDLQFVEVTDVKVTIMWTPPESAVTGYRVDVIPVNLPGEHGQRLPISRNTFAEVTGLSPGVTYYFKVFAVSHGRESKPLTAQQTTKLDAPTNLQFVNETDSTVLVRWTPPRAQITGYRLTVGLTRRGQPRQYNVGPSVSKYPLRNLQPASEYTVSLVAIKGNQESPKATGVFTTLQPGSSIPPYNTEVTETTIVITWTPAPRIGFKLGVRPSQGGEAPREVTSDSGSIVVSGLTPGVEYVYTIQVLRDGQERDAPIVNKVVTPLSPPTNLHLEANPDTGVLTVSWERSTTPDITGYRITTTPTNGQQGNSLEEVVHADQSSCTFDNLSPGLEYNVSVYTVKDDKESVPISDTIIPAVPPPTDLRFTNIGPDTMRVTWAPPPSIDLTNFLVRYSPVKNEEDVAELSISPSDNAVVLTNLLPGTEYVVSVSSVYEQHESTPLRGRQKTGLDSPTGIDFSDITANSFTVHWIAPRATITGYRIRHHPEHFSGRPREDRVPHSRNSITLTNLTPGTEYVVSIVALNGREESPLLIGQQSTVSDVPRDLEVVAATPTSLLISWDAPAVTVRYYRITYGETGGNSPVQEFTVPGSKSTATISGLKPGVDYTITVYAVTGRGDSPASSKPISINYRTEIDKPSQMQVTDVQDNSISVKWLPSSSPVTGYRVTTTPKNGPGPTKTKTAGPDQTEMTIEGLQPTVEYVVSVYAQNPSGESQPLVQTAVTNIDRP

**Q.** With B1 as the binder, how does the “inhibition of adhesion of α4β1+/α5β1+ Jurkat T-cells to coated Fibronectin cell binding fragment” value read?
**A.** Its value is > 100 fold.

**Q.** Which “inhibition of adhesion of α4β1+/α5β1+ Jurkat T-cells to coated Fibronectin cell binding fragment” value does the source give for B2 here?
**A.** The value was > 100 fold.

**Q.** How did the “inhibition of adhesion of α4β1+/α5β1+ Jurkat T-cells to coated Fibronectin cell binding fragment” value turn out when B3 was run?
**A.** Its value is > 100 fold.

**Q.** B4 was tested. Which “inhibition of adhesion of α4β1+/α5β1+ Jurkat T-cells to coated Fibronectin cell binding fragment” value did it give?
**A.** Its value is > 100 fold.

**Q.** With B5 as the binder, how does the “inhibition of adhesion of α4β1+/α5β1+ Jurkat T-cells to coated Fibronectin cell binding fragment” value read?
**A.** The value was > 100 fold.

**Q.** B6 was tested. Which “inhibition of adhesion of α4β1+/α5β1+ Jurkat T-cells to coated Fibronectin cell binding fragment” value did it give?
**A.** Its value is > 100 fold.

target: T1, VCAM (Panvera); experiment: cell-based or functional assay

**Q.** Which “inhibition of adhesion of α4β1+/α5β1+ Jurkat T-cells to coated VCAM” value (shortened to “inhibition of adhesion … to coated VCAM”) does the source give for B1 here?
**A.** Its value is > 100 fold.

**Q.** With B2 as the binder, how does the “inhibition of adhesion … to coated VCAM” value read?
**A.** Its value is > 100 fold.

**Q.** How did the “inhibition of adhesion … to coated VCAM” value turn out when B3 was run?
**A.** The value was > 100 fold.

**Q.** B4 was tested. Which “inhibition of adhesion … to coated VCAM” value did it give?
**A.** The value was > 100 fold.

**Q.** For B5, which “inhibition of adhesion … to coated VCAM” value is on record?
**A.** Its value is > 100 fold.

**Q.** With B6 as the binder, how does the “inhibition of adhesion … to coated VCAM” value read?
**A.** Its value is > 100 fold.

target: T2, MAdCAM-IgG1 Fc fusion protein (human); experiment: MAdCAM-IgG1 Fc fusion / JY cell adhesion assay, mean IC50
T2 construct: Expressed in CHO-DHFR cells; also called MAdCAM-IgFc; soluble MAdCAM (in the sandwich ELISA)
T2 sequence (chain, as listed by the source limits assumed): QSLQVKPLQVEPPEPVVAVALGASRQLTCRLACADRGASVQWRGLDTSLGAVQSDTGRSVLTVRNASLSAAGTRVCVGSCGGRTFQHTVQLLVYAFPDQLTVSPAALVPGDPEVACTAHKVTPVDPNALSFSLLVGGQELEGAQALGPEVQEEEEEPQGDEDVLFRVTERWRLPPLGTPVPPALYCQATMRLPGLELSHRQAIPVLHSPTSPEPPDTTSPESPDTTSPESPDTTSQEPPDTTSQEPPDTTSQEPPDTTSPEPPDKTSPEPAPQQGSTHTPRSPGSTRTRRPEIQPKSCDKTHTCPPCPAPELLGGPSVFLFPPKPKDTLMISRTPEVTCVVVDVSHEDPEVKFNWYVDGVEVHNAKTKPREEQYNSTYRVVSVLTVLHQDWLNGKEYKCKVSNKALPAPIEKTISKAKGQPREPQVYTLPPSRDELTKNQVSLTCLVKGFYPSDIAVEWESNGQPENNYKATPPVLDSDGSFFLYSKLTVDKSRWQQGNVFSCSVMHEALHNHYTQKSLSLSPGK
Description: (§1) The cells were washed twice with RPMI 1640 media (Gibco) containing 2 mM L-glutamine (Gibco) by centrifugation (240 g), resuspending the final cell pellet at 2×10⁶ cells/mL in RPMI 1640 for Calcein AM loading. Calcein AM (Molecular Probes #C-3099) was added to the cells as a 1:200 dilution in DMSO (ca. final concentration 5 μM) and the cells protected from light during the course of the incubation (37° C. for 30 min). During this cell incubation step the antibodies to be tested, were diluted as follows: for single dose testing, the antibodies were made up to 3 μg/mL (1 μg/mL final) in 0.1 mg/mL BSA (Sigma#A3059) in PBS; for full IC₅₀ curves, the antibodies were diluted in 0.1 mg/mL BSA/PBS, with 3 μg/mL (1 μg/mL final) being the top concentration, then doubling dilutions (1:2 ratio) across the plate. The final well of the row was used for determining total binding, so 0.1 mg/ml BSA in PBS was used.
(§2) After blocking, the plate contents were flicked out and 50 μL of antibodies/controls were added to each well and the plate incubated at 37° C. for 20 min. During this time, Calcein-loaded JY cells were washed once with RPMI 1640 media containing 10% fetal bovine serum and once with 1 mg/mL BSA/PBS by centrifugation, resuspending the final cell pellet to 1×10⁶/mL in 1 mg/mL BSA/PBS. 100 μL of cells were added to each well of the U bottomed plate, the plate sealed, briefly centrifuged (1000 rpm for 2 min) and the plate then incubated at 37° C. for 45 min. At the end of this time, the plates were washed with a Skatron plate washer and fluorescence measured using a Wallac Victor² 1420 Multilabel Reader (excitation λ 485 nm, emission λ 535 nm count from top, 8 mm from bottom of plate, for 0.1 sec with normal emission aperture). For each antibody concentration, percent adhesion was expressed as a percentage of maximal fluorescence response in the absence of any antibody minus fluorescence associated with non-specific binding. The IC₅₀ value is defined as the anti-MAdCAM antibody concentration at which the adhesion response is decreased to 50% of the response in the absence of anti-MAdCAM antibody.

**Q.** B1 was tested. Which IC50 did it give?
**A.** Its IC50 is 0.013 µg/mL.

**Q.** Which IC50 does the source give for B7 here?
**A.** The IC50 was 0.049 µg/mL.

**Q.** With B3 as the binder, how does the IC50 read?
**A.** Its IC50 is 0.013 µg/mL.

**Q.** B8 was tested. Which IC50 did it give?
**A.** Its IC50 is 0.037 µg/mL.

**Q.** How did the IC50 turn out when B9 was run?
**A.** Its IC50 is 0.033 µg/mL.

**Q.** With B10 as the binder, how does the IC50 read?
**A.** Its IC50 is 0.077 µg/mL.

**Q.** B5 was tested. Which IC50 did it give?
**A.** Its IC50 is 0.021 µg/mL.

**Q.** With B6 as the binder, how does the IC50 read?
**A.** The IC50 was 0.018 µg/mL.

**Q.** Which IC50 does the source give for B11 here?
**A.** Its IC50 is 0.058 µg/mL.

target: T2, MAdCAM-IgG1 Fc fusion protein; experiment: adhesion of calcein-loaded α4β7+ JY cells to coated MAdCAM-IgG1 Fc, blocked by antibody
Description: as §1
as §2, with “The IC₅₀ value is defined as the anti-MAdCAM antibody concentration at which the adhesion response is decreased to 50% of the response in the absence of anti-MAdCAM antibody.” left out

**Q.** For B2, which IC50 is on record?
**A.** The IC50 was < 0.1 µg/mL.

**Q.** Which IC50 does the source give for B4 here?
**A.** The IC50 was < 0.1 µg/mL.

**Q.** With B5 as the binder, how does the IC50 read?
**A.** The IC50 was < 0.1 µg/mL.

Source: patent publication US20070166308A1 (Amgen, published 2007)
